No end group written: not given here. *: point of attachment. Biotin = O=C1N[C@H]2[C@H](CS[C@H]2CCCCC(=O)*)N1
Key:
Assay in all cases: G3 assay titration, immobilised GST-PDZ
[1] = target: T1, GST-INADL PDZ domain 3 fusion protein (human), Q8NI35
T1 chain: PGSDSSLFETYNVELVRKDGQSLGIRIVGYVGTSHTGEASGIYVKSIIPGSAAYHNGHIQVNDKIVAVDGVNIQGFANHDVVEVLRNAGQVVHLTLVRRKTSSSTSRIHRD

[2] = target: T2, GST-ZO-1 PDZ domain 2 fusion protein (human)
T2 chain: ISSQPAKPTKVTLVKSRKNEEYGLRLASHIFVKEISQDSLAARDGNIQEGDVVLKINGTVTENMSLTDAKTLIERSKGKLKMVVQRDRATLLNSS

[3] = target: T3, GST-TIP1 PDZ domain 1 fusion protein (human), O14907
T3 chain: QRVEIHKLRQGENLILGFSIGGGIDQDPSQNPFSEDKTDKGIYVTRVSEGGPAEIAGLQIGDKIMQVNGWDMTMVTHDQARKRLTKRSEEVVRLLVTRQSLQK

[4] = target: T4, GST-KIAA1284 PDZ domain 1 fusion protein (human), Q9ULD6
T4 chain: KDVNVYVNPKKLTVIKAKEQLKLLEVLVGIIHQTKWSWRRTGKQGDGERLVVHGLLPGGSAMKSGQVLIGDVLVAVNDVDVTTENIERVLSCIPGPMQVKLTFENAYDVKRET

[5] = target: T5, GST-LIM mystique PDZ domain 1 fusion protein (human), Q96JY6
T5 chain: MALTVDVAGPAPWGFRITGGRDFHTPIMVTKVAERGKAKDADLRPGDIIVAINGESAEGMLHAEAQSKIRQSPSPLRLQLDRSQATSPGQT

[6] = target: T6, GST-MAST2 PDZ domain 1 fusion protein (human), Q6P0Q8
T6 chain: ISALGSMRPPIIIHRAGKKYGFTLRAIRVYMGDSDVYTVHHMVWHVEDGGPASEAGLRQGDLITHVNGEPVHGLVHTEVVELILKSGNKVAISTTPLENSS

[7] = target: T7, GST-MINT1 PDZ domain 1 fusion protein (human)
T7 chain: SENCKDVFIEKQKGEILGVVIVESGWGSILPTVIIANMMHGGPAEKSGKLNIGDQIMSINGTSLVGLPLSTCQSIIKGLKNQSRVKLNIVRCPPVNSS

[8] = target: T8, GST-MINT1 PDZ domain 2 fusion protein (human)
T8 chain: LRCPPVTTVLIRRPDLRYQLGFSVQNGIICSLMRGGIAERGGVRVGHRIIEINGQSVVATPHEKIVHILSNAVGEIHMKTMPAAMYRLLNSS

[9] = target: T9, GST-MINT1 PDZ domains 1,2 fusion protein (human)
T9 chain: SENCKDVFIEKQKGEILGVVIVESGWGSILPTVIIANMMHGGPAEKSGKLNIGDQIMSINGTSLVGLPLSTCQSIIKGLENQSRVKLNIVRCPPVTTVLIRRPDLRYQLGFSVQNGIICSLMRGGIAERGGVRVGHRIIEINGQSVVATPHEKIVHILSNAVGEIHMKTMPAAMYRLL

[10] = target: T10, GST-MUPP1 PDZ domain 3 fusion protein (human), O75970
T10 chain: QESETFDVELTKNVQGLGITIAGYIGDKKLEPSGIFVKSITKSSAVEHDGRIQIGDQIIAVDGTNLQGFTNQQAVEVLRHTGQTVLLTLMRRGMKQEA

[11] = target: GST-PAR3 PDZ domain 3 fusion protein (human), Q8TEW0
[12] = target: GST-PAR3L PDZ domain 3 fusion protein (human), Q8TEW8
[13] = target: T11, GST-RIM2 PDZ domain 1 fusion protein (human)
T11 chain: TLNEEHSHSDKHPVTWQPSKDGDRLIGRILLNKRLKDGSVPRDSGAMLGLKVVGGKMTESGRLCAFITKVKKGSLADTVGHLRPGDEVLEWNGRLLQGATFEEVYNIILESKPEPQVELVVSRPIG

[14] = target: T12, GST-SITAC 18 PDZ domain 1 fusion protein (human), Q9H190
T12 chain: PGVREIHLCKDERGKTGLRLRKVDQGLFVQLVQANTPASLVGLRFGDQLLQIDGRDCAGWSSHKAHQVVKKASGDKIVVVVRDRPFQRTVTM

[15] = target: T13, GST-SITAC 18 PDZ domain 2 fusion protein (human), Q9H190
T13 chain: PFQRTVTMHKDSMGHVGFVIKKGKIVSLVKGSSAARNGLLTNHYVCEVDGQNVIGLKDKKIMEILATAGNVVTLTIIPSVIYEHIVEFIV

[16] = target: T14, GST-Syntrophin 1 alpha PDZ domain 1 fusion protein (human), Q13424
T14 chain: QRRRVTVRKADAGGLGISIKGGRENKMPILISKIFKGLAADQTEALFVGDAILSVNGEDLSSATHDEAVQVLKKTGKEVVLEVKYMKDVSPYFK

GST-PAR3 PDZ domain 3 fusion protein (human), Q8TEW0, sequence (Q8TEW0 other isoform, or with tags, fused parts or gaps): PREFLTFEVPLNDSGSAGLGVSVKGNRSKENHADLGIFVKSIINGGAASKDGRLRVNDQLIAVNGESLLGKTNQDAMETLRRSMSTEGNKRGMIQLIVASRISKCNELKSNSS
GST-PAR3L PDZ domain 3 fusion protein (human), Q8TEW8, sequence (Q8TEW8 other isoform, or with tags, fused parts or gaps): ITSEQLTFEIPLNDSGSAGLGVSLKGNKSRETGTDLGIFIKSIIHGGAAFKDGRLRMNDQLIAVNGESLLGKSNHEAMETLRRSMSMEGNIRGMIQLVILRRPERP

B1: Peptide #1837 (biotin-…) (peptide)
peptide: Biotin-YGRKKRRQRRRARTDRKVEV
B1 was tested, and the ODmax (450 nm) [1] was 0.37 OD 450 nm, the EC50 [2] was < 20 nM and the ODmax (450 nm) [2] was 1.8 OD 450 nm.

B2: Peptide #1836 (biotin-…) (peptide)
peptide: Biotin-YGRKKRRQRRRARGDRKIRV
For B2, the ODmax (450 nm) [1] was 0.3 OD 450 nm, the EC50 [2] was < 10 nM and the ODmax (450 nm) [2] was 2.6 OD 450 nm.

B3: Peptide #1839 (biotin-…) (peptide)
peptide: Biotin-YGRKKRRQRRRSRTDRKYQI
B3 was tested, and the EC50 [1] was 130 nM, the ODmax (450 nm) [1] was 1.6 OD 450 nm and the EC50 [2] was < 20 nM. For the same binder, the ODmax (450 nm) [2] was 2.5 OD 450 nm.

B4: Peptide #AA353 (biotin-…) (peptide)
peptide: Biotin-YGRKKRRQRRREKHFRETEV
In the case of B4, the EC50 [3] is reported as < 2 nM and the ODmax (450 nm) [3] is reported as 3 OD 450 nm.

B5: Peptide #1843 (biotin-…) (peptide)
peptide: Biotin-YGRKKRRQRRRARGDRLVSL
For B5, the EC50 [1] was < 2000 nM, the ODmax (450 nm) [1] was 1.2 OD 450 nm and the EC50 [2] was 17 nM. For the same binder, the ODmax (450 nm) [2] was 2.2 OD 450 nm.

B6: Peptide #1832 (biotin-…) (peptide)
peptide: Biotin-YGRKKRRQRRRSRTDRKYWA
For B6, the EC50 [1] was 200 nM, the ODmax (450 nm) [1] was 0.6 OD 450 nm and the EC50 [2] was < 20 nM. For the same binder, the ODmax (450 nm) [2] was 2.1 OD 450 nm.

B7: Peptide #1829 (biotin-…) (peptide)
peptide: Biotin-YGRKKRRQRRRARSDRTIWA
With B7 the ODmax (450 nm) [1] was 1.4 OD 450 nm, the EC50 [2] was 7 nM and the ODmax (450 nm) [2] was 2.9 OD 450 nm.

B8: Peptide #1844 (biotin-…) (peptide)
peptide: Biotin-YGRKKRRQRRRARGTRLVWV
With B8 the EC50 [1] was < 20 nM, the ODmax (450 nm) [1] was 2.4 OD 450 nm and the EC50 [2] was < 20 nM. It also gave an ODmax (450 nm) [2] of 2.6 OD 450 nm.

B9: Tat-TRPM7 peptide (biotinylated peptide, 11 residues of Tat coupled to the C-terminal 9 amino acids of TRPM7) (peptide)
peptide: YGRKKRRQRRRSTNSVRLML
modifications: not fully specified
Work on B9 yielded an EC50 [1] of 120 nM, an ODmax (450 nm) [1] of 1.9 OD 450 nm and an ODmax (450 nm) [4] of 0.63 OD 450 nm. For the same binder, the EC50 [5] was 90 nM, the ODmax (450 nm) [5] was 2.1 OD 450 nm and the EC50 [6] was 110 nM. The ODmax (450 nm) [6] was 2.1 OD 450 nm, the ODmax (450 nm) [7] was 0.33 OD 450 nm and the EC50 [8] was < 2000 nM. The ODmax (450 nm) [8] was 0.76 OD 450 nm, the EC50 [9] was 180 nM and the ODmax (450 nm) [9] was 1.9 OD 450 nm. It also gave an EC50 [10] of 290 nM, an ODmax (450 nm) [10] of 2.06 OD 450 nm and an EC50 [11] of 18 nM. It also gave an ODmax (450 nm) [11] of 2.5 OD 450 nm, an EC50 [12] of 100 nM and an ODmax (450 nm) [12] of 1.97 OD 450 nm. The EC50 [13] was 47 nM, the ODmax (450 nm) [13] was 2.1 OD 450 nm and the EC50 [14] was < 1000 nM. For the same binder, the ODmax (450 nm) [14] was 1.7 OD 450 nm, the EC50 [15] was 90 nM and the ODmax (450 nm) [15] was 1.95 OD 450 nm. The EC50 [16] was 160 nM, the ODmax (450 nm) [16] was 2.05 OD 450 nm and the EC50 [3] was < 1000 nM. The ODmax (450 nm) [3] was 1.82 OD 450 nm, the EC50 [2] was 33 nM and the ODmax (450 nm) [2] was 2.2 OD 450 nm.

B10: Peptide #1848 (biotin-…) (peptide)
peptide: Biotin-YGRKKRRQRRRARGDRTIIY
B10 was tested, and the EC50 [1] was < 2000 nM, the ODmax (450 nm) [1] was 1.2 OD 450 nm and the EC50 [2] was < 20 nM. For the same binder, the ODmax (450 nm) [2] was 2.2 OD 450 nm.

B11: Peptide #1838 (biotin-…) (peptide)
peptide: Biotin-YGRKKRRQRRRARGDRKYIV
B11 was tested, and the EC50 [1] was < 100 nM, the ODmax (450 nm) [1] was 2.6 OD 450 nm and the EC50 [2] was < 100 nM. It also gave an ODmax (450 nm) [2] of 2.6 OD 450 nm.

B12: Peptide #1845 (biotin-…) (peptide)
peptide: Biotin-YGRKKRRQRRRARGDRYRIV
For B12, the EC50 [1] was < 100 nM, the ODmax (450 nm) [1] was 2.2 OD 450 nm and the EC50 [2] was < 100 nM. The ODmax (450 nm) [2] was 2.3 OD 450 nm.

B13: Peptide #1842 (biotin-…) (peptide)
peptide: Biotin-YGRKKRRQRRRQDERRLIVL
B13 was tested, and the EC50 [1] was < 1000 nM, the ODmax (450 nm) [1] was 1.9 OD 450 nm and the EC50 [2] was 35 nM. The ODmax (450 nm) [2] was 2.3 OD 450 nm.

B14: Peptide #1830 (biotin-…) (peptide)
peptide: Biotin-YGRKKRRQRRRARSDRTIIA
In the case of B14, the EC50 [1] is reported as < 2000 nM, the ODmax (450 nm) [1] is reported as 1.2 OD 450 nm and the EC50 [2] is reported as < 20 nM. The ODmax (450 nm) [2] was 1.8 OD 450 nm.

B15: Peptide #1854 (biotin-…) (peptide)
peptide: Biotin-YGRKKRRQRRRARGRRETWV
B15 was tested, and the EC50 [1] was < 20 nM, the ODmax (450 nm) [1] was 2.1 OD 450 nm and the ODmax (450 nm) [2] was 2.8 OD 450 nm.
